Legend:
[1] = target: T1, FPR (Homo sapiens, UniProt P21462); details: human neutrophils; Locke et al. 2009; cited from earlier work
T1 construct: endogenous in cells; host or cells: human neutrophils
T1 sequence (P21462 1-350): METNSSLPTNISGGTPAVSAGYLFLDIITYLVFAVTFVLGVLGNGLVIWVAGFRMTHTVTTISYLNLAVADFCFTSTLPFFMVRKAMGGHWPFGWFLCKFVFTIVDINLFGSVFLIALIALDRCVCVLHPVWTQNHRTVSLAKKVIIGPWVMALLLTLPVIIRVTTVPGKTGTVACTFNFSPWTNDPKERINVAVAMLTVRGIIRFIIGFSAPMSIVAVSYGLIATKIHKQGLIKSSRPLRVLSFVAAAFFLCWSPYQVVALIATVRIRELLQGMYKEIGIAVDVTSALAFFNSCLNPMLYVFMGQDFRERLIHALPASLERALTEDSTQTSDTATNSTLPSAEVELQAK

[2] = target: T2, neutrophil N-formylpeptide receptor (Homo sapiens, UniProt P21462); details: reported in the literature; cited from earlier work
T2 sequence (P21462 1-350): T1 sequence (P21462 1-350)

[3] = reported; poor imaging quality due to lipophilicity; cited from earlier work
[4] = tested on: infiltrating neutrophils; assay: neutrophil co-localization immunohistochemistry after CCI TBI; format: in vivo; details: CCI TBI rats, 12 hours post-injury
Protocol: Neutrophil co-localization: Rats underwent CCI injury as described above and were immediately injected with cFLFLF-PEG-Cy5 through a tail vein catheter. Animals were sacrificed 12 hours post-injection and perfused with 200 cc of a 10% sucrose wash and 200 cc of 4% paraformaldehyde. After four hours, animals were perfused with a 30% sucrose cryoprotectant. Brains were then removed and sectioned at a thickness of […]. Sections were incubated in rabbit anti-rat neutrophil elastase (abcam 21595) at a dilution of 1:200 overnight at 4° C. Next, sections were washed three times in PBS and then incubated in alexa fluor 488 goat anti-rabbit antibody at a 1:200 dilution at room temperature for two hours. Sections were washed three times in PBS. Vectashield mounting medium with DAPI was applied to each section with a cover slip. Slides were assessed with a Zeiss Axioimager Z1 microscope equipped with the Apotome module. Photomicrographs were acquired using the Zeiss Zen 2011 software (FIG. 2).

[5] = tested on: infiltrating neutrophils; set-up: species or system Sprague-Dawley rats; details: rat, in vivo
Protocol: Sprague-Dawley rats (N=3/experimental group) underwent moderate-severe experimental controlled cortical impact (CCI) trauma brain injury (TBI) or SHAM preparation. Animals were sacrificed 12, 24, or 48 hours post-injury, a tail vein catheter was inserted 12 hr prior to sacrifice, and each animal received a 2 mCi dose of cFLFLF-PEG-^64Cu. Radiopharmaceutical was allowed to circulate for 12 hrs prior to sacrifice. Brains were removed and unfixed, […] frozen sections were collected on a Leica CM3050S cryostat. Sections were collected onto slides and placed on radiosensitive FujiFilm SR imaging plates for 12 hours. Each screen was read with a GE Typhoon FLA9000 phosphor imager at a pixel size of […]. Average intensity values from seven ROIs (FIG. 5B-5G) were measured from 20 brain sections that included the entirety of the contusion volume. Values were normalized to the corrected dose of radiation and animal body weight. Average intensity values of each ROI were compared to the contralateral anatomical region in each of the SHAM, 12, 24 hour, and 48 hour experimental groups. Phosphor imaging is a standard technique for determining whether a labeled ligand is suitable for PET imaging and positive results are an indicator that the labeled ligand is indeed useful for PET imaging.

[6] = target: T3, neutrophil receptor (formyl peptide receptor, FPR) (Homo sapiens, UniProt P21462); details: human neutrophils; Zhang et al. 2007; cited from earlier work
T3 construct: endogenous in cells; host or cells: human neutrophils
T3 sequence (P21462 1-350): T1 sequence (P21462 1-350)

[7] = tested on: neutrophils; details: superoxide stimulation assays; Locke et al.; cited from earlier work
[8] = mouse, in vivo; cited from earlier work

| Substance | Kd [1] [nM] | affinity for the neutrophil N-formylpeptide receptor [2] | liver uptake [3] | co-localization with neutrophil markers [4] | post-injury time point of most prominent uptake [5] [h] | time of statistically significant peak uptake, ratio ipsilateral to contralateral, caudate and putamen [5] [h] | time of statistically significant peak uptake, ratio ipsilateral to contralateral, corpus callosum [5] [h] | time of statistically significant peak uptake, ratio ipsilateral to contralateral, cortex [5] | time of statistically significant peak uptake, ratio ipsilateral to contralateral, hemisphere [5] [h] | time of statistically significant peak uptake, ratio ipsilateral to contralateral, hippocampus [5] [h] | uptake within cerebrospinal fluid (CSF) in the ventricles [5] | Kd [6] [nM] | biologic activity toward neutrophils [7] | mean biologic half-life [8] [min] |
| --- | --- | --- | --- | --- | --- | --- | --- | --- | --- | --- | --- | --- | --- | --- |
| cF(D)LF(D)LF [cFLFLF] | 2 | high affinity | high liver uptake |  |  |  |  |  |  |  |  |  |  |  |
| cinnamoyl-F(D)LF(D)LFK-polyethylene glycol [cFLFLF-PEG] |  |  |  | localizes to infiltrating neutrophils within brain parenchyma |  |  |  |  |  |  |  |  |  |  |
| cinnamoyl-F(D)LF(D)LFK-polyethylene glycol-DOTA-64Cu [cFLFLF-PEG-^64Cu] | 17.7 |  |  |  | 12 | 12 | 12 | 12 and 24 hour | 12 | 12 | intense uptake | 5.7 | no biologic activity toward neutrophils | 55±8 |
